Laboratory results taken from patent US12679878B2, “CRF2 receptor agonists and their use in therapy” (SANOFI, priority 2020, dated 2026).
Starred links: 1 amine or outer side, 2 acyl side, 3 side chain; linkers in the order of their positions; H or OH if unused. Non-standard residues stand in square brackets, D forms with d. Groups on a side chain read outwards from the residue. No end group written: not given here. *: point of attachment. γGlu = O=C(O)[C@H](CCC(=O)[*:2])N[*:1]; Palmitoyl = CCCCCCCCCCCCCCCC(=O)*; AEEA = NCCOCCOCC(=O)O; Aib = CC(C)(N)C(=O)O

B1: peptide of SEQ ID NO: 206 (peptide)
peptide: IVLSLD[dV]PIKLK([AEEA-AEEA-γGlu-γGlu-Palmitoyl])QILLKQERQK[Aib]QREQAEKNKQILAQV-NH2
modifications: N-terminus assumed
SMILES: CCCCCCCCCCCCCCCC(=O)N[C@@H](CCC(=O)N[C@@H](CCC(=O)NCCOCCOCC(=O)NCCOCCOCC(=O)NCCCC[C@H](NC(=O)[C@H](CC(C)C)NC(=O)[C@H](CCCCN)NC(=O)[C@@H](NC(=O)[C@@H]1CCCN1C(=O)[C@H](NC(=O)[C@H](CC(=O)O)NC(=O)[C@H](CC(C)C)NC(=O)[C@H](CO)NC(=O)[C@H](CC(C)C)NC(=O)[C@@H](NC(=O)[C@@H](N)[C@@H](C)CC)C(C)C)C(C)C)[C@@H](C)CC)C(=O)N[C@@H](CCC(N)=O)C(=O)N[C@H](C(=O)N[C@@H](CC(C)C)C(=O)N[C@@H](CC(C)C)C(=O)N[C@@H](CCCCN)C(=O)N[C@@H](CCC(N)=O)C(=O)N[C@@H](CCC(=O)O)C(=O)N[C@@H](CCCNC(=N)N)C(=O)N[C@@H](CCC(N)=O)C(=O)N[C@@H](CCCCN)C(=O)NC(C)(C)C(=O)N[C@@H](CCC(N)=O)C(=O)N[C@@H](CCCNC(=N)N)C(=O)N[C@@H](CCC(=O)O)C(=O)N[C@@H](CCC(N)=O)C(=O)N[C@@H](C)C(=O)N[C@@H](CCC(=O)O)C(=O)N[C@@H](CCCCN)C(=O)N[C@@H](CC(N)=O)C(=O)N[C@@H](CCCCN)C(=O)N[C@@H](CCC(N)=O)C(=O)N[C@H](C(=O)N[C@@H](CC(C)C)C(=O)N[C@@H](C)C(=O)N[C@@H](CCC(N)=O)C(=O)N[C@H](C(N)=O)C(C)C)[C@@H](C)CC)[C@@H](C)CC)C(=O)O)C(=O)O
B2: peptide of SEQ ID NO: 210 (peptide)
peptide: IVLSLD[dV]PIKLK([AEEA-AEEA-γGlu-Palmitoyl])QILLKQERQKK[Aib]RQKAEKNKQILAQV-NH2
modifications: N-terminus assumed
SMILES: CCCCCCCCCCCCCCCC(=O)N[C@@H](CCC(=O)NCCOCCOCC(=O)NCCOCCOCC(=O)NCCCC[C@H](NC(=O)[C@H](CC(C)C)NC(=O)[C@H](CCCCN)NC(=O)[C@@H](NC(=O)[C@@H]1CCCN1C(=O)[C@H](NC(=O)[C@H](CC(=O)O)NC(=O)[C@H](CC(C)C)NC(=O)[C@H](CO)NC(=O)[C@H](CC(C)C)NC(=O)[C@@H](NC(=O)[C@@H](N)[C@@H](C)CC)C(C)C)C(C)C)[C@@H](C)CC)C(=O)N[C@@H](CCC(N)=O)C(=O)N[C@H](C(=O)N[C@@H](CC(C)C)C(=O)N[C@@H](CC(C)C)C(=O)N[C@@H](CCCCN)C(=O)N[C@@H](CCC(N)=O)C(=O)N[C@@H](CCC(=O)O)C(=O)N[C@@H](CCCNC(=N)N)C(=O)N[C@@H](CCC(N)=O)C(=O)N[C@@H](CCCCN)C(=O)N[C@@H](CCCCN)C(=O)NC(C)(C)C(=O)N[C@@H](CCCNC(=N)N)C(=O)N[C@@H](CCC(N)=O)C(=O)N[C@@H](CCCCN)C(=O)N[C@@H](C)C(=O)N[C@@H](CCC(=O)O)C(=O)N[C@@H](CCCCN)C(=O)N[C@@H](CC(N)=O)C(=O)N[C@@H](CCCCN)C(=O)N[C@@H](CCC(N)=O)C(=O)N[C@H](C(=O)N[C@@H](CC(C)C)C(=O)N[C@@H](C)C(=O)N[C@@H](CCC(N)=O)C(=O)N[C@H](C(N)=O)C(C)C)[C@@H](C)CC)[C@@H](C)CC)C(=O)O
B3: peptide of SEQ ID NO: 211 (peptide)
peptide: IVLSLD[dV]PIKLK([AEEA-AEEA-γGlu-γGlu-Palmitoyl])QILLKQERQKK[Aib]RQKAEKNKQILAQV-NH2
modifications: N-terminus assumed
SMILES: CCCCCCCCCCCCCCCC(=O)N[C@@H](CCC(=O)N[C@@H](CCC(=O)NCCOCCOCC(=O)NCCOCCOCC(=O)NCCCC[C@H](NC(=O)[C@H](CC(C)C)NC(=O)[C@H](CCCCN)NC(=O)[C@@H](NC(=O)[C@@H]1CCCN1C(=O)[C@H](NC(=O)[C@H](CC(=O)O)NC(=O)[C@H](CC(C)C)NC(=O)[C@H](CO)NC(=O)[C@H](CC(C)C)NC(=O)[C@@H](NC(=O)[C@@H](N)[C@@H](C)CC)C(C)C)C(C)C)[C@@H](C)CC)C(=O)N[C@@H](CCC(N)=O)C(=O)N[C@H](C(=O)N[C@@H](CC(C)C)C(=O)N[C@@H](CC(C)C)C(=O)N[C@@H](CCCCN)C(=O)N[C@@H](CCC(N)=O)C(=O)N[C@@H](CCC(=O)O)C(=O)N[C@@H](CCCNC(=N)N)C(=O)N[C@@H](CCC(N)=O)C(=O)N[C@@H](CCCCN)C(=O)N[C@@H](CCCCN)C(=O)NC(C)(C)C(=O)N[C@@H](CCCNC(=N)N)C(=O)N[C@@H](CCC(N)=O)C(=O)N[C@@H](CCCCN)C(=O)N[C@@H](C)C(=O)N[C@@H](CCC(=O)O)C(=O)N[C@@H](CCCCN)C(=O)N[C@@H](CC(N)=O)C(=O)N[C@@H](CCCCN)C(=O)N[C@@H](CCC(N)=O)C(=O)N[C@H](C(=O)N[C@@H](CC(C)C)C(=O)N[C@@H](C)C(=O)N[C@@H](CCC(N)=O)C(=O)N[C@H](C(N)=O)C(C)C)[C@@H](C)CC)[C@@H](C)CC)C(=O)O)C(=O)O
B4: peptide of SEQ ID NO: 213 (peptide)
peptide: IVLSLD[dV]PIKLK([γGlu-Palmitoyl])QILLKQERQKKQREKAEKNKQILAQV-NH2
modifications: N-terminus assumed
SMILES: CCCCCCCCCCCCCCCC(=O)N[C@@H](CCC(=O)NCCCC[C@H](NC(=O)[C@H](CC(C)C)NC(=O)[C@H](CCCCN)NC(=O)[C@@H](NC(=O)[C@@H]1CCCN1C(=O)[C@H](NC(=O)[C@H](CC(=O)O)NC(=O)[C@H](CC(C)C)NC(=O)[C@H](CO)NC(=O)[C@H](CC(C)C)NC(=O)[C@@H](NC(=O)[C@@H](N)[C@@H](C)CC)C(C)C)C(C)C)[C@@H](C)CC)C(=O)N[C@@H](CCC(N)=O)C(=O)N[C@H](C(=O)N[C@@H](CC(C)C)C(=O)N[C@@H](CC(C)C)C(=O)N[C@@H](CCCCN)C(=O)N[C@@H](CCC(N)=O)C(=O)N[C@@H](CCC(=O)O)C(=O)N[C@@H](CCCNC(=N)N)C(=O)N[C@@H](CCC(N)=O)C(=O)N[C@@H](CCCCN)C(=O)N[C@@H](CCCCN)C(=O)N[C@@H](CCC(N)=O)C(=O)N[C@@H](CCCNC(=N)N)C(=O)N[C@@H](CCC(=O)O)C(=O)N[C@@H](CCCCN)C(=O)N[C@@H](C)C(=O)N[C@@H](CCC(=O)O)C(=O)N[C@@H](CCCCN)C(=O)N[C@@H](CC(N)=O)C(=O)N[C@@H](CCCCN)C(=O)N[C@@H](CCC(N)=O)C(=O)N[C@H](C(=O)N[C@@H](CC(C)C)C(=O)N[C@@H](C)C(=O)N[C@@H](CCC(N)=O)C(=O)N[C@H](C(N)=O)C(C)C)[C@@H](C)CC)[C@@H](C)CC)C(=O)O
B5: peptide of SEQ ID NO: 215 (peptide)
peptide: IVLSLD[dV]PIGLK([γGlu-Palmitoyl])QILLKQERQKK[Aib]REQAETNKQILAQV-NH2
modifications: N-terminus assumed
SMILES: CCCCCCCCCCCCCCCC(=O)N[C@@H](CCC(=O)NCCCC[C@H](NC(=O)[C@H](CC(C)C)NC(=O)CNC(=O)[C@@H](NC(=O)[C@@H]1CCCN1C(=O)[C@H](NC(=O)[C@H](CC(=O)O)NC(=O)[C@H](CC(C)C)NC(=O)[C@H](CO)NC(=O)[C@H](CC(C)C)NC(=O)[C@@H](NC(=O)[C@@H](N)[C@@H](C)CC)C(C)C)C(C)C)[C@@H](C)CC)C(=O)N[C@@H](CCC(N)=O)C(=O)N[C@H](C(=O)N[C@@H](CC(C)C)C(=O)N[C@@H](CC(C)C)C(=O)N[C@@H](CCCCN)C(=O)N[C@@H](CCC(N)=O)C(=O)N[C@@H](CCC(=O)O)C(=O)N[C@@H](CCCNC(=N)N)C(=O)N[C@@H](CCC(N)=O)C(=O)N[C@@H](CCCCN)C(=O)N[C@@H](CCCCN)C(=O)NC(C)(C)C(=O)N[C@@H](CCCNC(=N)N)C(=O)N[C@@H](CCC(=O)O)C(=O)N[C@@H](CCC(N)=O)C(=O)N[C@@H](C)C(=O)N[C@@H](CCC(=O)O)C(=O)N[C@H](C(=O)N[C@@H](CC(N)=O)C(=O)N[C@@H](CCCCN)C(=O)N[C@@H](CCC(N)=O)C(=O)N[C@H](C(=O)N[C@@H](CC(C)C)C(=O)N[C@@H](C)C(=O)N[C@@H](CCC(N)=O)C(=O)N[C@H](C(N)=O)C(C)C)[C@@H](C)CC)[C@@H](C)O)[C@@H](C)CC)C(=O)O
B6: peptide of SEQ ID NO: 216 (peptide)
peptide: IVLSLD[dV]PIGLK([AEEA-AEEA-γGlu-Palmitoyl])QILLKQERQKK[Aib]REQAETNKQILAQV-NH2
modifications: N-terminus assumed
SMILES: CCCCCCCCCCCCCCCC(=O)N[C@@H](CCC(=O)NCCOCCOCC(=O)NCCOCCOCC(=O)NCCCC[C@H](NC(=O)[C@H](CC(C)C)NC(=O)CNC(=O)[C@@H](NC(=O)[C@@H]1CCCN1C(=O)[C@H](NC(=O)[C@H](CC(=O)O)NC(=O)[C@H](CC(C)C)NC(=O)[C@H](CO)NC(=O)[C@H](CC(C)C)NC(=O)[C@@H](NC(=O)[C@@H](N)[C@@H](C)CC)C(C)C)C(C)C)[C@@H](C)CC)C(=O)N[C@@H](CCC(N)=O)C(=O)N[C@H](C(=O)N[C@@H](CC(C)C)C(=O)N[C@@H](CC(C)C)C(=O)N[C@@H](CCCCN)C(=O)N[C@@H](CCC(N)=O)C(=O)N[C@@H](CCC(=O)O)C(=O)N[C@@H](CCCNC(=N)N)C(=O)N[C@@H](CCC(N)=O)C(=O)N[C@@H](CCCCN)C(=O)N[C@@H](CCCCN)C(=O)NC(C)(C)C(=O)N[C@@H](CCCNC(=N)N)C(=O)N[C@@H](CCC(=O)O)C(=O)N[C@@H](CCC(N)=O)C(=O)N[C@@H](C)C(=O)N[C@@H](CCC(=O)O)C(=O)N[C@H](C(=O)N[C@@H](CC(N)=O)C(=O)N[C@@H](CCCCN)C(=O)N[C@@H](CCC(N)=O)C(=O)N[C@H](C(=O)N[C@@H](CC(C)C)C(=O)N[C@@H](C)C(=O)N[C@@H](CCC(N)=O)C(=O)N[C@H](C(N)=O)C(C)C)[C@@H](C)CC)[C@@H](C)O)[C@@H](C)CC)C(=O)O

What follows are binders tested against human corticotropin-releasing factor 2α (CRF2α receptor) (human), Q13324 (assay: cell-based or functional assay).
Sequence of human corticotropin-releasing factor 2α (CRF2α receptor) (human), Q13324 (Q13324 20-411): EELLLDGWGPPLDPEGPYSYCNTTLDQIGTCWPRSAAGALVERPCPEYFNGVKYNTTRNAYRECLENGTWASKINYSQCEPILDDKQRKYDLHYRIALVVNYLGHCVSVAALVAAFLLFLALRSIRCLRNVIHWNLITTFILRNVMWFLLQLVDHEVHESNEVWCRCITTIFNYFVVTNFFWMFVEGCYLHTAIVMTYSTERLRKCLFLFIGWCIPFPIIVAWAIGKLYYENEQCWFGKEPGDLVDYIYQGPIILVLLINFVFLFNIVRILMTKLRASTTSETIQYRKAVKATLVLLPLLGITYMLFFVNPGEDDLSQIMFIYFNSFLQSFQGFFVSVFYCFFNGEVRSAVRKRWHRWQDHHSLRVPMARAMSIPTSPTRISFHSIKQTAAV

Row | Binder | EC50 [nM], 0% HSA (cAMP, HTRF)
1 | B1 | 0.09 nM
2 | B2 | 2.98 nM
3 | B3 | 0.94 nM
4 | B4 | 4.48 nM
5 | B5 | 0.15 nM
6 | B6 | 0.19 nM
